{"source": "paper PMC11659421", "about": "“Structural insights into the enzymatic breakdown of azomycin-derived antibiotics by 2-nitroimdazole hydrolase (NnhA)” (Communications Biology, 2024)", "molecules": {"B1": {"name": "soluble NnhA (2-nitroimidazole nitrohydrolase A, T2I-G14D-K73R variant) (enzyme)", "chain": "MITVDKRPSSRGYDDWRLSDIPQYKDGISTYEFVRATHEADYRTHQAEPVAGRTFGFNGIGRLTEVALHMPTRYTLHDQSSQYKESPSFFQGLMGVPDRGPVDLAAFQRETEELATAFENNGIKVHWVDYPEEPANPYGPLMGHVFLSWGSIWRGGSVISRFGFLPGMVGVSEYLAKWAWNTLNIPPLVAITEGAMEPGACNMIADEVLVTCLSASYDQRGTDQLVAAISKTSGTEEFHNLQLRPAVEGFFNKATGACAHPDININAIDVGKLVVSPAALDWDARTWLYDNNFELIEADPDEQREFLAPCNVLLLEPGKVIAHADCHKTNQKIRDAGVEVIEVTGTEIRKACGGIKCRVMQINREPGPTLADVRNRVWR", "notes": "2-nitroimidazole nitrohydrolase A (NnhA) of Mycobacterium sp; JS330, UniProt F4ZCI3.1; electron density from R11 to R379 at the C-terminus; Variant found by four rounds of directed evolution (error-prone PCR); also called NnhA-T2I-G14D-K73R; soluble T2I, G14D, K73R NnhA mutant; source: no nickel column; not shown: His6, N-terminal, kept"}, "B2": {"name": "NnhA-T2I-G14D-K73R-C357A (enzyme)", "chain": "B1 chain with C357A", "notes": "2-nitroimidazole nitrohydrolase A (NnhA) of Mycobacterium sp; JS330, UniProt F4ZCI3.1; also called NnhA C357A; source: no nickel column"}}, "key": {"O=[N+]([O-])c1ncc[nH]1": {"system": "O=[N+]([O-])c1ncc[nH]1", "assay": "nitrite release, Griess reaction, Michaelis-Menten plot", "type": "biochemical, Mycobacterium sp. JS330", "details": "25-400 µM 2NI, 25 °C, no metal or cofactor", "description": "nitrite release, Griess reaction, Michaelis-Menten plot on NnhA"}, "[1]": {"target": "the molecule itself", "assay": "crystal structure; crystals in space groups P1 (6 molecules in the asymmetric unit) and H32 (one protomer, hexamer by crystallographic symmetry); grown in polyacrylic acid 5100, MgCl2, HEPES pH 7.2, or PEG 3350 with sodium malonate pH 7.0; data at 100 K"}, "[2]": {"target": "the molecule itself", "assay": "SEC; Superdex 200 prep column during purification, 20 mM Tris pH 7.5, 50 mM NaCl; molecular weight estimate assumes a globular complex"}, "[3]": {"details": "1.1 µM enzyme, soluble variant from directed evolution"}}, "note": "Where a chain is given by its changes, count along the chain named. Names may count otherwise.", "data": [{"molecule": "NnhA (Mycobacterium sp. JS330)", "values": [{"measurement": "Km", "setting": "O=[N+]([O-])c1ncc[nH]1; 1.1 µM enzyme", "result": "93.1 ± 14.1", "unit": "µM"}, {"measurement": "kcat", "setting": "O=[N+]([O-])c1ncc[nH]1; 1.1 µM enzyme", "result": "0.0212 ± 0.00267", "unit": "s⁻¹"}, {"measurement": "kcat/Km", "setting": "O=[N+]([O-])c1ncc[nH]1; 1.1 µM enzyme", "result": 200, "unit": "M⁻¹ s⁻¹"}]}, {"molecule": "NnhA (Mycobacterium sp. JS330; C352A/G14D/K73R/T2I)", "values": [{"measurement": "Km", "setting": "O=[N+]([O-])c1ncc[nH]1; 3.3 µM enzyme", "result": "24.5 ± 3.3", "unit": "µM"}, {"measurement": "kcat", "setting": "O=[N+]([O-])c1ncc[nH]1; 3.3 µM enzyme", "result": "0.0122 ± 0.000333", "unit": "s⁻¹"}, {"measurement": "kcat/Km", "setting": "O=[N+]([O-])c1ncc[nH]1; 3.3 µM enzyme", "result": 500, "unit": "M⁻¹ s⁻¹"}]}, {"molecule": "NnhA (Mycobacterium sp. JS330; G14D/K73R/T2I)", "values": [{"measurement": "Km", "setting": "O=[N+]([O-])c1ncc[nH]1; [3]", "result": "109.8 ± 7.6", "unit": "µM"}, {"measurement": "kcat", "setting": "O=[N+]([O-])c1ncc[nH]1; [3]", "result": "0.3 ± 0.007", "unit": "s⁻¹"}, {"measurement": "kcat/Km", "setting": "O=[N+]([O-])c1ncc[nH]1; [3]", "result": 2730, "unit": "M⁻¹ s⁻¹"}]}, {"molecule": "B1", "values": [{"measurement": "stoichiometry N", "setting": "[1]", "result": 6}, {"measurement": "stoichiometry N", "setting": "[2]", "result": "~4"}]}, {"molecule": "B2", "values": [{"measurement": "stoichiometry N", "setting": "[1]", "result": 6}]}]}
